Changes are numbered by the printed parent chain.
Assays:
[1] = molecular target: T1, EGFR-Fc fusion protein (recombinant EGFR extracellular region-Fc) (human, UniProt P00533 25-645); test: phage ELISA, EGFR-Fc coated, anti-M13-HRP
T1 construct: extracellular domain; not shown: Fc part supplied by vector pABG1

[2] = molecular target: T2, Recombinant human epidermal growth factor (EGF) (human, UniProt P01133 971-1023); test: ELISA, EGF coated at 1 µg/well, antibody without EGFR-Fc, HRP goat anti-human IgG
T2 construct: Coated on the ELISA plate; also called EGR

[3] = molecular target: T3, EGFR on A431 cell surface (human, UniProt P00533 25-1210); test: flow cytometry on A431 cells, antibody 0.03 µg/ml, FITC anti-human IgG
T3 construct: whole, on cells; also called natural EGFR on surface of A431 cell

[4] = molecular target: T1, EGFR-Fc fusion protein (recombinant …); test: BLI Fortebio, method of Example 5 (biotinylated EGFR-Fc on streptavidin sensor)
[5] = molecular target: T1, EGFR-Fc fusion protein (recombinant …); test: BLI ForteBio QKe, biotinylated EGFR-Fc on streptavidin sensor
[6] = molecular target: T1, EGFR-Fc fusion protein (recombinant …); test: BLI ForteBio QKe, biotinylated EGFR-Fc on streptavidin sensor, antibody 20 nM; fold reduction of affinity, parent Ame55 = 1;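 further: parent antibody affinity set as 1, with values giving the fold drop in affinity of each mutant antibody relative to that parent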

T2 sequence (P01133 971-1023 limits assumed): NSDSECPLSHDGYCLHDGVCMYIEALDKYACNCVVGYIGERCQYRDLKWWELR

B1: Ame55 phage single chain antibody (scFv)
scFv: SYELTQPPSVSVAPGQTARITCSGDALGDKYASWYQQKPGQAPVLVIYEDSKRPSGIPERFSGSNSGNTATLTISGTQAEDEADYYCSVWDGDWGMPVFGGGTKLTVLGSGGSTITSYNVYYTKLSSSGSEVQLVQSGAEVKKPGESLKISCKGSGYSFTSYWIGWVRQMPGKGLEWMGIIYPGDSDTRYSPSFQGQVTISADKSISTAYLQWSSLKASDTAMYYCARGIIYPSNVAVWGQGTLVTVSS
notes: the phage coat fusion is not described; also called Ame55 phage antibody; Ame55 single chain antibody
- binding result [1]: binds

B2: Ame55 intact antibody (IgG1) (antibody, V domains shown)
VH: EVQLVQSGAEVKKPGESLKISCKGSGYSFTSYWIGWVRQMPGKGLEWMGIIYPGDSDTRYSPSFQGQVTISADKSISTAYLQWSSLKASDTAMYYCARGIIYPSNVAVWGQGTLVTVSS
VL: SYELTQPPSVSVAPGQTARITCSGDALGDKYASWYQQKPGQAPVLVIYEDSKRPSGIPERFSGSNSGNTATLTISGTQAEDEADYYCSVWDGDWGMPVFGGGTKLTVLG
notes: Variable regions cloned into vectors pABL and pABG1 and expressed in HEK293T as intact IgG1 with lambda light chain; also called Amet55; parent antibody Ame55
- binding result [2]: no binding
- binding result [3]: binds

B3: Ame-9B (antibody, V domains shown)
VH: EVQLVESGGGLVQPGGSLRLSCAASGFTFSSYAMSWVRQAPGKGLEWVSAITGTGGETYYADSVKGRFTISRDNSKNTLYLQMNSLRAEDTAVYYCARGWSWTGVDPWGQGTLVTVSS
VL: B2 VL
notes: Expressed in HEK293, purified on Protein A; also called mutant Ame-9B
- fold decrease of affinity (against Ame55) [4]: ~6 times

B4: Ame55 mutant, light chain 89S(A1) (antibody, V domains shown)
VH: B2 VH
VL: B2 VL with V89S
notes: Mutant of Ame55
- fold increase of affinity against parent antibody Ame55 [5]: 4 times
- Affinity change [6]: 0.5 fold
